Test results: article PMC7229184, “Cryo-EM structure of the volume-regulated anion channel LRRC8D isoform identifies features important for substrate permeation” (Communications Biology, 2020)

Biological target: the molecule itself
Experiment: cryo-EM structure; purified HsLRRC8D in 50 mM Tris pH 8.0, 150 mM NaCl, 5 mM dithiothreitol, 0.1% digitonin, 3 mg/mL, vitrified; single-particle analysis, C2 symmetry imposed; homo-hexamer ('dimer of trimers')

B1: human LRRC8D (leucine-rich repeat-containing 8 isoform D) wild-type protein (natural protein)
chain: MFTLAEVASLNDIQPTYRILKPWWDVFMDYLAVVMLMVAIFAGTMQLTKDQVVCLPVLPSPVNSKAHTPPGNAEVTTNIPKMEAATNQDQDGRTTNDISFGTSAVTPDIPLRATYPRTDFALPNQEAKKEKKDPTGRKTNLDFQQYVFINQMCYHLALPWYSKYFPYLALIHTIILMVSSNFWFKYPKTCSKVEHFVSILGKCFESPWTTKALSETACEDSEENKQRITGAQTLPKHVSTSSDEGSPSASTPMINKTGFKFSAEKPVIEVPSMTILDKKDGEQAKALFEKVRKFRAHVEDSDLIYKLYVVQTVIKTAKFIFILCYTANFVNAISFEHVCKPKVEHLIGYEVFECTHNMAYMLKKLLISYISIICVYGFICLYTLFWLFRIPLKEYSFEKVREESSFSDIPDVKNDFAFLLHMVDQYDQLYSKRFGVFLSEVSENKLREISLNHEWTFEKLRQHISRNAQDKQELHLFMLSGVPDAVFDLTDLDVLKLELIPEAKIPAKISQMTNLQELHLCHCPAKVEQTAFSFLRDHLRCLHVKFTDVAEIPAWVYLLKNLRELYLIGNLNSENNKMIGLESLRELRHLKILHVKSNLTKVPSNITDVAPHLTKLVIHNDGTKLLVLNSLKKMMNVAELELQNCELERIPHAIFSLSNLQELDLKSNNIRTIEEIISFQHLKRLTCLKLWHNKIVTIPPSITHVKNLESLYFSNNKLESLPVAVFSLQKLRCLDVSYNNISMIPIEIGLLQNLQHLHITGNKVDILPKQLFKCIKLRTLNLGQNCITSLPEKVGQLSQLTQLELKGNCLDRLPAQLGQCRMLKKSGLVVEDHLFDTLPLEVKEALNQDINIPFANGI
notes: Residues of the TEV site may remain at the C-terminus after cleavage; also called HsLRRC8D; not shown: GFP, C-terminal, cleaved; His8, C-terminal, cleaved
**Q.** B1 was tested. Which “stoichiometry N” value did it give?
**A.** Its value is 6.
